PMC10065799, “High-throughput profiling of sequence recognition by tyrosine kinases and SH2 domains using bacterial peptide display” (eLife, 2023)

How the values were obtained:
Fyn kinase domain = experiment: LC-MS assay of intact SHP2 protein phosphorylation; format: biochemical, human; conditions: SHP2 10 μM, kinase 1 μM, 1 hr, 37 °C, 2 to 3 measurements
Protocol: (§1) The same protocol used to express and purify SH2 domains, excluding co-expression of BirA and addition of biotin, was applied to the expression and purification of the SHP2 variants.
(§2) To pre-activate the kinases, 1 μM of each purified kinase domain was preincubated at 37 °C for 30 min in the same buffer conditions used in the kinase domain peptide display screen, with 1 mM ATP. The reaction of the kinase with SHP2 was initiated with the addition of 10 μM SHP2, and the mixture was incubated in 37 °C for 1 hr. To terminate the reaction, the mixture was quenched with 200 mM EDTA. The reaction mixture was diluted 3:2 in water and injected onto a BEH C8 column (Waters) on a UPLC-MS system (Xevo QToF, Waters). Reverse-phase liquid chromatography was carried out at 0.3 mL/min with solvents A (H2O, 0.1% (v/v) formic acid) and B (acetonitrile, 0.1% (v/v) formic acid). Proteins were eluted over a gradient of 5–95% B for 8.5 min. The protein peak on the chromatogram was deconvoluted using the MaxEnt1 algorithm from 32,000–65,000 Da with a resolution of 1 Da/channel over 30 iterations. Peaks were chosen according to the theoretical MW of the protein within a range of 5 Da, and integrated for the signal intensity.

FGFR1 kinase domain = experiment: LC-MS assay of intact SHP2 protein phosphorylation; format: biochemical, human; conditions: SHP2 10 μM, kinase 1 μM, 1 hr, 37 °C, 2 to 3 measurements
Protocol: as §1, §2

phosphorylation of intact SHP2 by Fyn (Fyn kinase domain): dramatically enhanced phosphorylation
phosphorylation of intact SHP2 by FGFR1 (FGFR1 kinase domain): dramatically enhanced phosphorylation
B1: SHP2 D61V: human full-length SHP2 (residues 1–526; C459E, D61V) (protein, UniProt Q06124 2-593, looked up, variant C459E D61V)
Tyrosine-protein phosphatase …: TSRRWFHPNITGVEAENLLLTRGVDGSFLARPSKSNPGDFTLSVRRNGAVTHIKIQNTGVYYDLYGGEKFATLAELVQYYMEHHGQLKEKNGDVIELKYPLNCADPTSERWFHGHLSGKEAEKLLTEKGKHGSFLVRESQSHPGDFVLSVRTGDDKGESNDGKSKVTHVMIRCQELKYDVGGGERFDSLTDLVEHYKKNPMVETLGTVLQLKQPLNTTRINAAEIESRVRELSKLAETTDKVKQGFWEEFETLQQQECKLLYSRKEGQRQENKNKNRYKNILPFDHTRVVLHDGDPNEPVSDYINANIIMPEFETKCNNSKPKKSYIATQGCLQNTVNDFWRMVFQENSRVIVMTTKEVERGKSKCVKYWPDEYALKEYGVMRVRNVKESAAHDYTLRELKLSKVGQGNTERTVWQYHFRTWPDHGVPSDPGGVLDFLEEVHHKQESIMDAGPVVVHESAGIGRTGTFIVIDILIDIIREKGVDCDIDVPKTIQMVRSQRSGMVQTEAQYRFIYMAVQHYIETLQRRIEEEQKSKRKGHEYTNIKYSLADQTSGDQSPLPPCTPTPPCAEMREDSARVYENVGLMQQQKSFR
